Reference: patent US20170158753A1 (INTEGRATED BIOTHERAPEUTICS, published 2017)

B1: m2E4 (antibody, V domains shown)
VH: EVQLQESGPELVKPGASVKISCKASGYSFTGYYMNWVKQSPEKSLEWIGEINPSTGGTTYNQKFKAKATLTVDKSSSTAYMQLKSLTSEDSAVYYCVRYSHYYGSGSWYFDVWGTGTTVTVSS
VL: DIQMTQSPASLSASVGETVTITCRASENIYSNLAWYQQKQGKSPQLLVNAATNLADGVPSRFSGSGSGTQFSLKINSLQPEDFGSYYCQHFYVTPYTFGSGTKLEIKR
B2: m5E4 (antibody, V domains shown)
VH: EVQLQESGGDLVKPGGSLKLSCAASGFTFSSYTMSWVRQTPERRLEWVATITSGGTYTYYPDSVKGRFTISRDNAKNTLYLQMTSLKSEDTAMYYCTREDGYYFSYWGQGTLVTVSA
VL: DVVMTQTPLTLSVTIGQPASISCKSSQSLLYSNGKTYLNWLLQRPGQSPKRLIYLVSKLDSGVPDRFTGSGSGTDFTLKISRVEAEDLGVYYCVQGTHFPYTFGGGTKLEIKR

Experiments:
EBOV GP[change] [1] = molecular target: T1, EBOV GP[change] (Ebola virus, UniProt Q05320)
EBOV GP[change] [2] = molecular target: T1, EBOV GP[change]; remark: listed apart in the source
MARV GP[change] = MARV GP[change] (Marburg virus, UniProt P35253)

Binder	EC50 (EBOV GP[change] [1]) [µg/mL]	Kd (EBOV GP[change] [2]) [nM]	Kd (MARV GP[change]) [nM]
B1	1.27	–	–
B2	–	12	30
